Assay [1] addresses RBD-6H (340-538; NITN.GPKK), biotinylated (SARS-CoV-2).
The target in assay [2] is RBD-VLP (Spycatcher-mi3 VLP-particles conjugated with Spytagged-RBD recombinant protein) (SARS-CoV-2). Briefly: ELISA.

The text below walks through data of article PMC8130932 (2021).

The term IC50 denotes the midpoint of a concentration-inhibition curve.

B1: EY 6A (antibody, V domains shown)
VH: EVQLVESGGGVVQPGRSLRLSCAASAFTFSSYDMHWVRQAPGKGLEWVAVISYDGSNKYYADSVKGRFTISRDNSKNTLYLQMNSLRAEDTAVYYCAKDGGKLWVYYFDYWGQGTLVTVSS
VL: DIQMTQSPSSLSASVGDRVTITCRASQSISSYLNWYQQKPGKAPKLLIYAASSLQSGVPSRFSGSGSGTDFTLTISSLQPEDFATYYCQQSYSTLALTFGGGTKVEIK
As for B1, half-maximal inhibition in assay [1] (IC50) required 189 nM.

B2: FD 11A (antibody, V domains shown)
VH: EVQLVESGGGVVQPGRSLRLSCAASGFTFSSYGMHWVRQAPGKGLEWVAVIWYDGSNKYYADSVKGRFTISRDNSKNTLYLQMNSLRAEDTAVYYCAKGPDILTGYYNYYYYGMDVWGQGTMVTVSS
VL: QSVLTQPPSVSGAPGQRVTISCTGSSSNIGAGYDVHWYQQLPGTAPKLLIYGNSNRPSGVPDRFSGSKSGTSASLAITGLQAEDEADYYCQSYDSSLSGFYVVFGGGTKLTVL
As for B2, the IC50 in assay [1] worked out at 164 nM.

B3: FI 3A (antibody, V domains shown)
VH: EVQLLESGGGLIQPGGSLRLSCAASGFTVSSNYMSWVRQAPGKGLEWVSVIYSGGSTYYADSVKGRFTISRDNSKNTLYLQMNSLRAEDTAVYYCARDHVRPGMNIWGQGTMVTVSS
VL: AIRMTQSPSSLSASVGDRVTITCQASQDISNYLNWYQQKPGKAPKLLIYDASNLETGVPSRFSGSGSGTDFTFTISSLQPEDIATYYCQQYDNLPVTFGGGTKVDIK
Regarding B3, the figures for the IC50 in assay [1] and in assay [2] were 8 nM and 3 nM, respectively.

B4: FI 1C (antibody, V domains shown)
VH: EVQLVESGGGLVKPGGSLRLSCAASGFTFSDYYMSWIRQAPGKGLEWVSYISSSGSTIYYADSVKGRFTISRDNAKNSLYLQMNSLRAEDTAVYYCARRSNRFLIAFDIWGQGTMVTVSS
VL: QSALTQPASVSGSPGQTITISCTGTSSDVGGYNYVSWYQQHPGKAPKLMIYEVSNRPSGVSNRFSGSKSGNTASLTISGLQAEDEADYYCSSYTSSSTLVVFGGGTKLTVP
As to B4, the IC50 in assay [1] is 109 nM; in assay [2], 3 nM.

B5: FD 5D (antibody, V domains shown)
VH: EVQLVESGGGLVQPGGSLRLSCAASGFTFSSYSMNWVRQAPGKGLEWVSYISSSSSTIYYADPVKGRFTISRDNAKNSLYLQMNSLRAEDTAVYYCASPGGITAAGTSVLFGYYGMDVWGQGTMVTVSS
VL: not shown
In assay [1], B5 showed an IC50 of 34 nM.
